Results on 20 molecules are retold here after patent US20150098989A1.

Non-standard residues stand in square brackets, D forms with d. Met(O) = CS(=O)CC[C@H](N)C(=O)O

The target in the first test is SNARE complex (VAMP, syntaxin, SNAP-25 bound to GST) (UniProt P60880). The test is described as follows: ELISA of SNARE complex formation (SNAP-25-GST, syntaxin, immobilized VAMP); compound at 2.5 mM.
Sequence of SNARE complex (VAMP, syntaxin, SNAP-25 bound to GST) (P60880 whole entry, one chain of several): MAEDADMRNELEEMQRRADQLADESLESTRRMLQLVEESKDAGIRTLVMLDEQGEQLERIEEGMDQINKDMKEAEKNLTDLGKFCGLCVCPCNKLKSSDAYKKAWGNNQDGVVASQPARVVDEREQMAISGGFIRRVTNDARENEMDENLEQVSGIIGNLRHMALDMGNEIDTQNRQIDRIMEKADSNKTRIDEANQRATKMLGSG
In turn, Ac-DHFLNWM-NH2 [Ac-SEQ ID NO: 34-NH2] had a % inhibition formation SNARE complex of 85%.
On the same count and under the same terms, the figure for Ac-QDFLHWM-NH2 [Ac-SEQ ID NO: 2-NH2] is 64%; for Ac-RHFLQWM-NH2 [Ac-SEQ ID NO: 13-NH2] it is 20%; for Ac-NHLKNWM-NH2 [Ac-SEQ ID NO: 31-NH2] it is 59%.
Molecule Ac-NDLKDWM-NH2 [Ac-SEQ ID NO: 23-NH2] showed a % inhibition formation SNARE complex of 60%.
In turn, Ac-QHLKEWM-NH2 [Ac-SEQ ID NO: 12-NH2] registered a % inhibition formation SNARE complex of 71%.
Molecule Ac-DHFLDWM-NH2 [Ac-SEQ ID NO: 25-NH2] gave a % inhibition formation SNARE complex of 71%.
On to Ac-EHFLQWM-NH2 [Ac-SEQ ID NO: 30-NH2], for which the % inhibition formation SNARE complex is 71%.
Ac-ENLKRWM-NH2 [Ac-SEQ ID NO: 117-NH2] showed a % inhibition formation SNARE complex of 65%.
The molecule Ac-QHLHNVM-NH2 [Ac-SEQ ID NO: 3-NH2] yielded a % inhibition formation SNARE complex of 64%.
Still for that read-out and setting: to Ac-EDLKRWM-NH2 [Ac-SEQ ID NO: 14-NH2] belongs 67%.
Ac-QHLKNWM-NH2 [Ac-SEQ ID NO: 27-NH2] gave a % inhibition formation SNARE complex of 14%.
Same read-out and setting: to Ac-EHLKKWM-NH2 [Ac-SEQ ID NO: 8-NH2] belongs 44%.
On the same count and under the same terms, to Ac-DHFQQRM-NH2 [Ac-SEQ ID NO: 24-NH2] belongs 55%; to Ac-DHLKKWM-NH2 [Ac-SEQ ID NO: 22-NH2], 72%; to Ac-EELKRWM-NH2 [Ac-SEQ ID NO: 116-NH2], 69%.
On the same count and under the same terms, the figure for Ac-NHFLNWM-NH2 [Ac-SEQ ID NO: 15-NH2] is 42%; for Ac-EHLKQWM-NH2 [Ac-SEQ ID NO: 1-NH2] it is 63%; for Ac-NHLKHWM-NH2 [Ac-SEQ ID NO: 32-NH2] it is 19%.

The target of another test is SNARE complex (VAMP, syntaxin, SNAP-25) (UniProt P60880). Kind of test: SDS-PAGE of SNARE complex (VAMP, syntaxin, SNAP-25), image analysis; compound at 5 mM.
Sequence of SNARE complex (VAMP, syntaxin, SNAP-25) (P60880 whole entry, one chain of several): as above
In turn, Ac-DHFLNWM-NH2 [Ac-SEQ ID NO: 34-NH2] came in with a % inhibition formation SNARE complex of 59%.
As to Ac-QDFLHWM-NH2 [Ac-SEQ ID NO: 2-NH2], the % inhibition formation SNARE complex worked out at 80%.
Same read-out and setting: to Ac-DHFLDWM-NH2 [Ac-SEQ ID NO: 25-NH2] belongs 100%; to Ac-EDLKRWM-NH2 [Ac-SEQ ID NO: 14-NH2], 100%.
Ac-DHFQQRM-NH2 [Ac-SEQ ID NO: 24-NH2] came in with a % inhibition formation SNARE complex of 100%.
Regarding Ac-NHFLNWM-NH2 [Ac-SEQ ID NO: 15-NH2], the % inhibition formation SNARE complex is 100%.
Same read-out and setting: to Ac-EHLKQWM-NH2 [Ac-SEQ ID NO: 1-NH2] belongs 100%.

The target is the same in another test. Kind of test: SDS-PAGE of SNARE complex (VAMP, syntaxin, SNAP-25), image analysis; compound at 1 mM.
Regarding Ac-DHFLNWM-NH2 [Ac-SEQ ID NO: 34-NH2], the % inhibition formation SNARE complex was determined as 14%.
For the molecule Ac-QDFLHWM-NH2 [Ac-SEQ ID NO: 2-NH2], the % inhibition formation SNARE complex came to 37%.
Turning to Ac-DHFLDWM-NH2 [Ac-SEQ ID NO: 25-NH2], the % inhibition formation SNARE complex came out at 83%.
Regarding Ac-EDLKRWM-NH2 [Ac-SEQ ID NO: 14-NH2], the % inhibition formation SNARE complex came out at 83%.
In turn, Ac-DHFQQRM-NH2 [Ac-SEQ ID NO: 24-NH2] showed a % inhibition formation SNARE complex of 48%.
Same read-out and setting: to Ac-NHFLNWM-NH2 [Ac-SEQ ID NO: 15-NH2] belongs 50%; to Ac-EHLKQWM-NH2 [Ac-SEQ ID NO: 1-NH2], 59%.

The target in another test is SNARE complex (VAMP, syntaxin, SNAP-25 bound to GST) (UniProt P60880). Kind of test: ELISA of SNARE complex formation (SNAP-25-GST, syntaxin, immobilized VAMP); compound at 0.5 mM. On the technique in general: In an ELISA, binding on a coated surface is turned into a signal by an enzyme label.
In turn, Ac-DHFLDW[Met(O)]-NH2 [Ac-SEQ ID NO: 56-NH2] displayed a % inhibition formation SNARE complex of 9%.
Still for that read-out and setting: the figure for Ac-DHFLNWM-NH2 [Ac-SEQ ID NO: 34-NH2] is 27%.
Ac-QDFLHWM-NH2 [Ac-SEQ ID NO: 2-NH2] yielded a % inhibition formation SNARE complex of 26%.
Molecule Ac-NHLKNWM-NH2 [Ac-SEQ ID NO: 31-NH2] showed a % inhibition formation SNARE complex of 26%.
Same read-out and setting: to Ac-NDLKDWM-NH2 [Ac-SEQ ID NO: 23-NH2] belongs 10%.
On the same count and under the same terms, to Ac-QHLKEWM-NH2 [Ac-SEQ ID NO: 12-NH2] belongs 20%; to Ac-DHFLDWM-NH2 [Ac-SEQ ID NO: 25-NH2], 40%; to Ac-EHFLQWM-NH2 [Ac-SEQ ID NO: 30-NH2], 24%.
Still for that read-out and setting: to Ac-QHLHNVM-NH2 [Ac-SEQ ID NO: 3-NH2] belongs 31%; to Ac-EDLKRWM-NH2 [Ac-SEQ ID NO: 14-NH2], 43%.
Molecule Ac-EHLKKWM-NH2 [Ac-SEQ ID NO: 8-NH2] yielded a % inhibition formation SNARE complex of 11%.
On the same count and under the same terms, to Ac-DHFQQRM-NH2 [Ac-SEQ ID NO: 24-NH2] belongs 41%; to Ac-DHLKKWM-NH2 [Ac-SEQ ID NO: 22-NH2], 18%; to Ac-NHFLNWM-NH2 [Ac-SEQ ID NO: 15-NH2], 48%.
In turn, Ac-EHLKQWM-NH2 [Ac-SEQ ID NO: 1-NH2] returned a % inhibition formation SNARE complex of 33%.
